Substitutions are numbered along the chain they refer to. “And” between values parts separate entries of the source, which are not always exact repeats. Equal entries are not always repeated. A value given as a limit tells only on which side of the number the result lay.

The target of assay [1] is human T cell receptor with β chain variable region Vβ 5.2, on HPB-ALL cells (human). Briefly: flow cytometry on HPB cells, TM27 purified from CHO cells. (Flow cytometry measures light scatter and fluorescence of single cells or particles in a stream.)
The target is the same in assay [2]. Briefly: flow cytometry on HPB cells, TM27 purified from NSO cells.
Assay [3] has the same target. Briefly: 4H11-FITC competition assay, competitor label 4H11-FITC (cells not stated in the example).

B1: TM27 (antibody, V domains shown)
VH: QVQLQESGPGLVRPSQTLSLTCTVSGFSLTAYGVNWVRQPPGRGLEWLGMIWGDGNTDYNSALKSRVTMLKDTSKNQFSLRLSSVTAADTAVYYCARDRVTATLYAMDYWGQGSLVTVSS
VL: DIQMTQSPSSLSASVGDRVTITCSASQGISNYLNWYQQTPGKAPKLLIYYTSSLHSGVPSRFSGSGSGTDYTFTISSLQPEDIATYYCQQYSKLPRTFGQGTKLQIT
For B1, the mean channel fluorescence in assay [1] is 283 and 322; in assay [2], 507. The molecule further displayed a value in the 4H11-FITC competition assay, fold against TM23 in assay [3] of less than 3 fold.

B2: TM27I (antibody, V domains shown)
VH: B1 VH with L48I
VL: B1 VL
The molecule B2 yielded a value in the 4H11-FITC competition assay, fold against TM23 in assay [3] of less than 3 fold.

The record behind these values is patent US5861155.
